Laboratory results published in patent US20220380463A1 (Adimab, published 2022).

How the values were obtained:
[1] = molecular target: T1, human CD3 on CD3+ Jurkat cells (human, UniProt P07766 23-207); experiment: flow cytometry, 100 nM IgG on CD3+ Jurkat cells, pH 7.4
T1 construct: whole, on cells; Native CD3 complex on cells; the other CD3 chains are not specified for this assay; also called Human CD3+ Jurkat
Description: (§1) Specificity of the anti-CD3 antibodies for human CD3+ Jurkat cells compared to CHO-S cells at pH 6.0 and 7.4 was determined using a FACS cell binding assay. Briefly, CD3+ human Jurkat cells and CHO-S cells were thawed and washed with cold PBSF buffer, pH 7.4 (PBS+0.1% BSA, pH 7.4). About 200,000 cells were aliquoted per well of a 96-well plate and pelleted by centrifugation (5 minutes at 500×g). The cells were washed with either PBSF pH 7.4 or PBSF pH 6.0 (PBS+0.1% BSA, pH 6.0), and then resuspended in 100 ul in either PBSF pH 7.4 or PBSF pH 6.0 with IgG antibody produced in yeast (100 nM). The mixture (cells+antibody) was incubated for 20 minutes on ice, then washed twice with either PBSF pH 7.4 or PBSF pH 6.0. Cells were resuspended in 50 ul of propidium iodide (1:500 dilution) and anti-human IgG-RPE (1:100 dilution) prepared in either PBSF pH 7.4 or PBSF pH 6.0, then incubated for 20 minutes on ice in the dark before cells were washed twice with either PBSF pH 7.4 or PBSF pH 6.0. Binding was analyzed on FACS Canto II.
(§2) Cell binding assays. CD3+ human Jurkat cells (ATCC) and CHO-S cells (Invitrogen/ThermoFisher) were thawed and washed with cold PBSF buffer, pH 7.4 (PBS+0.1% BSA, pH 7.4). About 200,000 cells were aliquoted per well of a 96-well plate (FACS Assay Plate VWR BD 353263) and pelleted by centrifugation (5 minutes at 500×g). The cells were washed with either PBSF pH 7.4 or PBSF pH 6.0 (PBS+0.1% BSA, pH 6.0), and then resuspended in 100 ul in either PBSF pH 7.4 or PBSF pH 6.0 with IgG antibody (100 nM) produced in yeast as described above. The mixture (cells+antibody) was incubated for 20 minutes on ice, then washed twice with either PBSF pH 7.4 or PBSF pH 6.0. Cells were resuspended in 50 ul of propidium iodide (Roche; 1:500 dilution) and anti-human IgG-RPE (Southern Biotech; 1:100 dilution) prepared in either PBSF pH 7.4 or PBSF pH 6.0, then incubated for 20 minutes on ice in the dark before cells were washed twice with either PBSF pH 7.4 or PBSF pH 6.0. Binding was analyzed on FACS Canto II.

[2] = molecular target: T1, human CD3 on CD3+ Jurkat cells; experiment: flow cytometry, 100 nM IgG on CD3+ Jurkat cells, pH 6.0
Description: as §1, §2

[3] = molecular target: T1, human CD3 on CD3+ Jurkat cells; experiment: flow cytometry on CD3+ Jurkat cells, ratio of MFI at pH 6.0 to pH 7.4
Description: as §1, §2

T1 sequence (P07766 23-207): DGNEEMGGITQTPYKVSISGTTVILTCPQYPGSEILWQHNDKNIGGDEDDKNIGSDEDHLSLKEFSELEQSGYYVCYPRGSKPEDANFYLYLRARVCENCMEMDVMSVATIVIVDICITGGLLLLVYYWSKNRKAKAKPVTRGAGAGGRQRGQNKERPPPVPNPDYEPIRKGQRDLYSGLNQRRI

B1: LAD5224_P03_A01 (ADI-26906) (antibody, V domains shown)
VH: QVQLVQSGAEVKKPGASVKVSCKASGFNIKDYYMHWVRQAPGQRLEWMGWIDLENANTIYDAKFQGRVTITRDTSASTAYMELSSLRSEDTAVYYCARDAYGRYFYDVWGQGTLVTVSS
VL: DIVMTQSPDSLAVSLGERATINCKSSQSLLNARTGKNYLAWYQQKPGQPPKLLIYWASTRESGVPDRFSGSGSGTDFTLTISSLQAEDVAVYYCKQSYSRRTFGGGTKVEIK
notes: IgG; also called Ab1; parent clone
MFI pH 7.4 [1]: 5270 MFI
MFI pH 6.0 [2]: 6040 MFI
MFI pH 6.0/MFI pH 7.4 [3]: 1.1

B2: LAD9965_P01_H07 (ADI-48666) (antibody, V domains shown)
VH: QVQLVQSGAEVKKPGASVKVSCKASGFNIKDYYMHWVRQAPGQRLEWMGWIDLENANTIYDAKFQGRVTITRDTSASTAYMELSSLRSEDTAVYYCARDAYGRYFYDVWGQGTLVTVSS
VL: DIVMTQSPDSLAVSLGERATINCKSSQSLLNARTGHNYLAWYQQKPGQPPKLLIYWASTRESGVPDRFSGSGSGTDFTLTISSLQAEDVAVYYCKQSYSRRTFGGGTKVEIK
notes: IgG; also called Ab177
MFI pH 7.4 [1]: 4800 MFI
MFI pH 6.0 [2]: 5700 MFI
MFI pH 6.0/MFI pH 7.4 [3]: 1.2

B3: SAD10318_P01_D02 (ADI-48584) (antibody, V domains shown)
VH: QVQLVQSGAEVKKPGASVKVSCKASGFNIKDYYMHWVRQAPGQRLEWMGWIDLENANTIYDAKFQGRVTITRDTSASTAYMELSSLRSEDTAVYYCARDAHHRYFYDVWGQGTLVTVSS
VL: DIVMTQSPDSLAVSLGERATINCKSSQSLLNARTGKNHLAWYQQKPGQPPKLLIYWASTRESGVPDRFSGSGSGTDFTLTISSLQAEDVAVYYCKQSHSHRTFGGGTKVEIK
notes: IgG; also called Ab3
MFI pH 7.4 [1]: 91 MFI
MFI pH 6.0 [2]: 2180 MFI
MFI pH 6.0/MFI pH 7.4 [3]: 23.9

B4: SAD10318_P01_F03 (ADI-48589) (antibody, V domains shown)
VH: QVQLVQSGAEVKKPGASVKVSCKASGFNIKDYYMHWVRQAPGQRLEWMGWIDLENANTIYDAKFQGRVTITRDTSASTAYMELSSLRSEDTAVYYCARDAHGRYFYDHWGQGTLVTVSS
VL: DIVMTQSPDSLAVSLGERATINCKSSQSLLNAHTGHNYLAWYQQKPGQPPKLLIYWASTRESGVPDRFSGSGSGTDFTLTISSLQAEDVAVYYCKQSYSHRTFGGGTKVEIK
notes: IgG; also called Ab80
MFI pH 7.4 [1]: 475 MFI
MFI pH 6.0 [2]: 5240 MFI
MFI pH 6.0/MFI pH 7.4 [3]: 11

B5: SAD10318_P01_D01 (ADI-48576) (antibody, V domains shown)
VH: QVQLVQSGAEVKKPGASVKVSCKASGFNIKDYYMHWVRQAPGQRLEWMGWIDLENANTIYDAKFQGRVTITRDTSASTAYMELSSLRSEDTAVYYCARDAYHRYFYDHWGQGTLVTVSS
VL: DIVMTQSPDSLAVSLGERATINCKSSQSLLNAHTGKNHLAWYQQKPGQPPKLLIYWASTRESGVPDRFSGSGSGTDFTLTISSLQAEDVAVYYCKQSHSHRTFGGGTKVEIK
notes: IgG; also called Ab182
MFI pH 7.4 [1]: 42 MFI
MFI pH 6.0 [2]: 849 MFI
MFI pH 6.0/MFI pH 7.4 [3]: 20.1

B6: SAD10318_P01_E01 (ADI-48577) (antibody, V domains shown)
VH: QVQLVQSGAEVKKPGASVKVSCKASGFNIKDYYMHWVRQAPGQRLEWMGWIDLENANTIYDAKFQGRVTITRDTSASTAYMELSSLRSEDTAVYYCARDAHHRYFYDVWGQGTLVTVSS
VL: DIVMTQSPDSLAVSLGERATINCKSSQSLLNAHEGKNYLAWYQQKPGQPPKLLIYWASTRESGVPDRFSGSGSGTDFTLTISSLQAEDVAVYYCKQSHSHRTFGGGTKVEIK
notes: IgG; also called Ab193
MFI pH 7.4 [1]: 73 MFI
MFI pH 6.0 [2]: 5370 MFI
MFI pH 6.0/MFI pH 7.4 [3]: 73.1

B7: SAD10318_P01_C01 (ADI-48575) (antibody, V domains shown)
VH: QVQLVQSGAEVKKPGASVKVSCKASGFNIKDYYMHWVRQAPGQRLEWMGWIDLENANTIYDAKFQGRVTITRDTSASTAYMELSSLRSEDTAVYYCARDAYHRYHYDVWGQGTLVTVSS
VL: DIVMTQSPDSLAVSLGERATINCKSSQSLLNAHTHKNYLAWYQQKPGQPPKLLIYWASTRESGVPDRFSGSGSGTDFTLTISSLQAEDVAVYYCKQSHSHRTFGGGTKVEIK
notes: IgG; also called Ab113
MFI pH 7.4 [1]: 81 MFI
MFI pH 6.0 [2]: 3110 MFI
MFI pH 6.0/MFI pH 7.4 [3]: 38.4

B8: SAD10318_P01_F01 (ADI-48578) (antibody, V domains shown)
VH: QVQLVQSGAEVKKPGASVKVSCKASGFNIKDYYMHWVRQAPGQRLEWMGWIDLENANTIYDAKFQGRVTITRDTSASTAYMELSSLRSEDTAVYYCARDAYGHYFYDHWGQGTLVTVSS
VL: DIVMTQSPDSLAVSLGERATINCKSSQSLLNAHTGKNHLAWYQQKPGQPPKLLIYWASTRESGVPDRFSGSGSGTDFTLTISSLQAEDVAVYYCKQSYHHRTFGGGTKVEIK
notes: IgG; also called Ab204
MFI pH 7.4 [1]: 36 MFI
MFI pH 6.0 [2]: 418 MFI
MFI pH 6.0/MFI pH 7.4 [3]: 11.7

B9: SAD10318_P01_A03 (ADI-48587) (antibody, V domains shown)
VH: QVQLVQSGAEVKKPGASVKVSCKASGFNIKDYYMHWVRQAPGQRLEWMGWIDLENANTIYDAKFQGRVTITRDTSASTAYMELSSLRSEDTAVYYCARDHYHRYFYDVWGQGTLVTVSS
VL: DIVMTQSPDSLAVSLGERATINCKSSQSLLNARTGHNYLAWYQQKPGQPPKLLIYWASTRESGVPDRFSGSGSGTDFTLTISSLQAEDVAVYYCKQSHSHRTFGGGTKVEIK
notes: IgG; also called Ab36
MFI pH 7.4 [1]: 66 MFI
MFI pH 6.0 [2]: 5120 MFI
MFI pH 6.0/MFI pH 7.4 [3]: 77.1

B10: SAD10318_P01_B01 (ADI-48574) (antibody, V domains shown)
VH: QVQLVQSGAEVKKPGASVKVSCKASGFNIKDYYMHWVRQAPGQRLEWMGWIDLENANTIYDAKFQGRVTITRDTSASTAYMELSSLRSEDTAVYYCARDAYGRYHYDHWGQGTLVTVSS
VL: DIVMTQSPDSLAVSLGERATINCKSSQSLLNAHTGHNYLAWYQQKPGQPPKLLIYWASTRESGVPDRFSGSGSGTDFTLTISSLQAEDVAVYYCKQSYSRRTFGGGTKVEIK
notes: IgG; also called Ab2
MFI pH 7.4 [1]: 150 MFI
MFI pH 6.0 [2]: 3550 MFI
MFI pH 6.0/MFI pH 7.4 [3]: 23.7

B11: SAD10318_P01_A02 (ADI-48581) (antibody, V domains shown)
VH: QVQLVQSGAEVKKPGASVKVSCKASGFNIKDYYMHWVRQAPGQRLEWMGWIDLENANTIYDAKFQGRVTITRDTSASTAYMELSSLRSEDTAVYYCARDAYHHYFYDVWGQGTLVTVSS
VL: DIVMTQSPDSLAVSLGERATINCKSSQSLLNARTHKNHLAWYQQKPGQPPKLLIYWASTRESGVPDRFSGSGSGTDFTLTISSLQAEDVAVYYCKQSYHHRTFGGGTKVEIK
notes: IgG; also called Ab237
MFI pH 7.4 [1]: 38 MFI
MFI pH 6.0 [2]: 1730 MFI
MFI pH 6.0/MFI pH 7.4 [3]: 45.5

B12: SAD10318_P01_D03 (ADI-48588) (antibody, V domains shown)
VH: QVQLVQSGAEVKKPGASVKVSCKASGFNIKDYYMHWVRQAPGQRLEWMGWIDLENANTIYDAKFQGRVTITRDTSASTAYMELSSLRSEDTAVYYCARDHYGHYFYDVWGQGTLVTVSS
VL: DIVMTQSPDSLAVSLGERATINCKSSQSLLNAHTGHNYLAWYQQKPGQPPKLLIYWASTRESGVPDRFSGSGSGTDFTLTISSLQAEDVAVYYCKQSHSHRTFGGGTKVEIK
notes: IgG; also called Ab58
MFI pH 7.4 [1]: 59 MFI
MFI pH 6.0 [2]: 4940 MFI
MFI pH 6.0/MFI pH 7.4 [3]: 83.3

B13: SAD10318_P01_F02 (ADI-48585) (antibody, V domains shown)
VH: QVQLVQSGAEVKKPGASVKVSCKASGFNIKDYYMHWVRQAPGQRLEWMGWIDLENANTIYDAKFQGRVTITRDTSASTAYMELSSLRSEDTAVYYCARDAHGHYFYDVWGQGTLVTVSS
VL: DIVMTQSPDSLAVSLGERATINCKSSQSLLNAHTGKNHLAWYQQKPGQPPKLLIYWASTRESGVPDRFSGSGSGTDFTLTISSLQAEDVAVYYCKQSHSHRTFGGGTKVEIK
notes: IgG; also called Ab14
MFI pH 7.4 [1]: 45 MFI
MFI pH 6.0 [2]: 381 MFI
MFI pH 6.0/MFI pH 7.4 [3]: 8.5

B14: SAD10318_P01_B02 (ADI-48582) (antibody, V domains shown)
VH: QVQLVQSGAEVKKPGASVKVSCKASGFNIKDYYMHWVRQAPGQRLEWMGWIDLENANTIYDAKFQGRVTITRDTSASTAYMELSSLRSEDTAVYYCARDHYHRYFYDVWGQGTLVTVSS
VL: DIVMTQSPDSLAVSLGERATINCKSSQSLLNARTGHNHLAWYQQKPGQPPKLLIYWASTRESGVPDRFSGSGSGTDFTLTISSLQAEDVAVYYCKQSHSHRTFGGGTKVEIK
notes: IgG; also called Ab248
MFI pH 7.4 [1]: 36 MFI
MFI pH 6.0 [2]: 326 MFI
MFI pH 6.0/MFI pH 7.4 [3]: 9
